The record followed here is the nanobody polyreactivity screen of Harvey et al. (2022).

The data set is described as follows: yeast display, Sf9 membrane polyspecificity reagent, FACS + sequencing; frameworks hold sequencing errors. The method, boiled down: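 After 36–48 hours of galactose induction, yeast (Saccharomyces cerevisiae BJ5465) displaying a synthetic nanobody library were stained at 4 °C for 1 hour with 10% biotinylated, detergent-solubilized Sf9 membrane reagent. Streptavidin microbeads enriched the stained cells before FACS sorting into low and high (top ~1%) gates on anti-HA and streptavidin fluorescence. Each clone's polyreactivity label reflects its gate of origin.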
As to “KVQHVESGGGLVQAGGSLRLSCAASGLTFYTNAMGWYRQPPGKESEFVADITTSGGDTYYADSVKGRFTISRDNAKNTVYLQMNSLKPEDTAVYYCGEFWSYWGYGQYDYWGQGTQVTVSS”, the “polyreactivity (PSR sort gate)” value is reported as “low polyreactivity”. In the case of “KVQLGESGGGLVQAGGSLRLSCAASGFIFGYNGMGWYRQAPGKERELVAGITYSDGSTYYADSVKGRFTISRDNAKNTVYLQMNSLKPEDTAVYYCAVDVIYYWAEDYDYWGQGTQVTVSS”, the “polyreactivity (PSR sort gate)” value is reported as “low polyreactivity”. The entry for “KVQLVDSGGGLVQAGGSLRLSCAASGSIFGDNAMGWYIQAPGKERELVAAISIVGSTSYADSVKGRFTISRDNAKNTVYLLMNSLKPEDTAVYYCAAENVRSDTGFDYCGQGTQVTVSS” is “low polyreactivity”; for “KVQLVESGAGLVQAGGSLRFSCAASGSIFIVYAMGWYRPAPGKERELVADITNGGDTNYADSVKGRFTISRDNAKNTVYLQMNSLKPEDTAVYYCAKYLWSYRVRTNVWRSYYWGQGTQVSVSS” it is “high polyreactivity”. The entry for “KVQLVESGGGFVQAGGSLRLSCAPSGSIFTWNAMGLYRQAPGKERELVAAITRGGSTYADSVKGRFTLSRDNAKNTVYLQMNSLKPEDTAVYYCNAVYGVYEFNYWGQGTQVTVSS” is “low polyreactivity”; for “KVQLVESGGGLVHAGGSLRLSCAASGRIIYYYAMGWYRTAPGKERELVAAISGRGTSTYYADSVKGRFTISRDNAKNTVYLKMNSLKPEDTAVYYCAARYYYWGQGTQVTVSS” it is “high polyreactivity”; for “KVQLVESGGGLVHAGGSLRLSCAASGRTLYTNAMGWYRQAPGTERELVAAITSGASTNYADSVKGRFTISRDNAKNTVYLQMNSLKPEDTAVYYCAARTDHLWNARRYDYWGQGTQVTVSS” it is “low polyreactivity”. The entry for “KVQLVESGGGLVQAGGSIRLSCDASGRSFYYYAMGWYRQAPGKEREWVAAINTRGTSTYYADSVKGRFTISRDNAKNTVYLQMNSLKPEDTAVYYCAVDPYGDSWEDWFRNYYYGYDYWGQGTQGTVSS” is “low polyreactivity”; for “KVQLVESGGGLVQAGGSLRLSCAASGIFLDRNAMGWYRQAPGKERELVAAINSIGGSTYYADSVKGRFTISRDNAKNTVYLQMNSLKPEDTAVFYCAAPSTSSYYWGQGTQVTVSS” it is “low polyreactivity”. Take “KVQLVESGGGLVQAGGSLRLSCAASGNTFYHYAMGWYRQAPGKERELVAGIRYNGGSTYYADSVKGRFTISRDNAKNTVYLHMKSLKPEDTAVYYCATKGYTGYAYRYGYWGQGTQVTVSS”: the “polyreactivity (PSR sort gate)” value is “high polyreactivity”.

For the sequence “KVQLVESGGGLVQAGGSLRLSCAASGSIFDLYTMGWYRQAPGKERELVATISSGGSTNYADSVKGRFTISRDNAKNTVNLQMNSLKPEDTAVYYCAAGSTHYDIHFDYWGQGTQVTVSS”, the “polyreactivity (PSR sort gate)” value is “low polyreactivity”. Take “KVQLVESGGGLVQAGGSLRLSCAASGSIFTFNAMGWYRQAPGKERELVAAIRWSSGRTYYADSVKGRFTISRDNAKNTVYLQMNSLKPEDTAVYFCAAKDFGSFYESGYDYWGQGTQVTVSS”: the “polyreactivity (PSR sort gate)” value is recorded as “high polyreactivity”. As to “KVQLVESGGGLVQAGGSLRLSCAASGSNFVYNAMGWYRQAPGKEREFVAAISGSGGSTYYADSVKGRFTISRDNAKNTVYLQMNSLKPEDTAVYYCATAGRYGRYRTYPYRSKYDYWGQGTQVTVSS”, the “polyreactivity (PSR sort gate)” value is “high polyreactivity”.

For the sequence “KVQLVESGGGLVQAGGSLRLSCAPSGRTFRSNGMGWYIQAPGKERELVATISEGGGSTYYADSVKGRFTISRDNAKNTVYLEMISLKPEDSAVYFCAADKWYVLHYLDMNYWGQGTQVTVSS”, the “polyreactivity (PSR sort gate)” value is “high polyreactivity”. As to “KVQLVESGGVLVQAGGSLRLICAASGRTFYGYAMGWSRQAPGKERELVAGITSGGSTTYADSVKGRFTISRDHAKKTVYLQMNSLKPEDTAVYYCAKKWYRTTRAYVFRSYDYWGQGTQVTVSS”, the “polyreactivity (PSR sort gate)” value is listed as “high polyreactivity”.

Turning to “KVQLVESGLGLVQAGGSLRISCAASGSIFTQYTMGWYRQAHGKERELVASISDSGGSTYYADSVKGRFTISRDNAKNTVYLQMNSLKPEDTSVYYCASRHDRPRESNPYDYWGQGTQVTVSS”, the “polyreactivity (PSR sort gate)” value is on record as “low polyreactivity”. “KVQRVDSGGGLVQAGGSLRLSCAASGSILGPYAMGWYRQAPGKERELVAGISGSGTRTYYADSVKGRFTISRDNAKNTVYLQMNSLKPEDTAVYYCAARYYSSWFRYPSYDYWGQGTQVTVSS”: the “polyreactivity (PSR sort gate)” value was “high polyreactivity”. The entry for “KVQVVESGGGLVQAGGSLRLSCAASGRIFGVYAMGWYRQAPGKERELVAAINYSGTRTYYADSVKGRFTISRDNAKNTVYLQMNSLKPEDSAVYYCAARRGSYSVTEYWGQGTQVTVSS” is “high polyreactivity”; for “LVQHVQSGGGLVQAGGSLRVSCAASGPTLDSNAMGWYRQAPGKERELVAAISSAGSTNYPDSVKGRFTISRDNAKNTVYLQMNSLKPEDTAVYYSAADLIGSHDYWGQGTQVTVSS” it is “low polyreactivity”. The entry for “LVQLQERVGVLVQAGGRLRLNCAASGTISPGGYMGWYRQAPGKELELVASINVGGSTNYADSVKGRFTISRDNAKNTVYLQMNRLKPEDNAVYYCAVWGRNRLQLSYWGQGTQVTVSS” is “low polyreactivity”; for “LVQLQESGGGLVQAGGSLRLSCAASGTISPGGYMGWYRQAPGQERELVASINVGGSTNYADSVKGRFTISRDNAKNPVDLQMNSLKPEDNAVYYCAVWGRNRLQLSYWGQGTQVTVSS” it is “low polyreactivity”; for “LVQLVESGGGLVQAGGSLRLSCAASGFIFFGEYVMGWYRQAPGKEREFVAAITDSDGSTYYADSVKGSFTISRDNGKNTVYLQMISLKPEDTAVYYCAAERVYSDMDYWGQGTQVTVSS” it is “low polyreactivity”. The same measure for “LVQLVESGGGLVQAGGSLRLSCAASGFISPSYALGWYRQAPGKERELVAAIRSSDGSTYYADSVKGRFTISRDNAKNTAYVQMNSRKPEDTAVYYCAAGGSSYRDDYWGQGSQVTVSS”: “low polyreactivity”. With “LVQLVESGGGLVQAGGSLRLSCAASGSICNANAMGWYRQAPGKERELVAGIRSGSSTNYADSVKGRVTISRDNAKNTVYLQMNSLKPEDTPVYYCATEGYWVYGFDDEYWGQGTQVTVSS”, the “polyreactivity (PSR sort gate)” value is “low polyreactivity”. For the sequence “LVQLVESGGGLVQAGGSLRLSCAASGSTFDGYAMGWYRQAPGKERELVAAIAYSGSSTYYADSVTGRFTISRDNSKNTVYIQMNSQKQEDTAVYYCAVDDTHPFGPDGGGDYWGQGTQVTVSS”, the “polyreactivity (PSR sort gate)” value is given as “low polyreactivity”. Turning to “NVQLVESGGGLVQAGGSLRLSCAASGRTFPTYAMGWYRQAPGKERELVAAISSSGGSTYYADSVKGRFTISRDNAKNTVYLQMNSLKPEDTAVYYCAALRARNLNPGYDYWGQGTQVTVSS”, the “polyreactivity (PSR sort gate)” value is reported as “low polyreactivity”. On to “PLQLVESGGGLVQAGGSLRLSCAATGFIFAVNAMGWYRQAPGKERELVAAISSSGTTNYADSVKGRFTISRDNAKNTVYLQMNSLKPEDTAVYYCAADYHGSPEYDYWGQGTQVTVSS”, for which the “polyreactivity (PSR sort gate)” value was “low polyreactivity”. The entry for “PVKLVESGGGLVQAGGSLRLSCAASGFTFFRNAMGWYRQAPGKERELVAAISGSGGRTYDADSVKGRFTISRDNAKNPVYLQLNSLKLEDTAVYYCAAVPVDPGYDYWGQGTQVTVSS” is “high polyreactivity”; for “PVQLQESGGGLVQAGGSLRLSCAASGNIFDADIMGWYRQAPGKERELVACIADGGSTNYADSVKGRFTISRDNAKNTVYLQMNSLKPEDTAVYYCAAIAYPDIPTCFDYDSDYFIRGQGTQVTVSS” it is “low polyreactivity”; for “PVQLVEAGGGLVQAGGSLRLSCAASGFTIRIYTMGWYRQAPGKERELVAAISSRGGSTYYADSVKGRFTISRDNAKITVYLQMNSLKPEDTAVYYCAKTPYYRYAKQRYTSSHDYWGQGTQVTVSS” it is “high polyreactivity”. Turning to “PVQLVESGGGLVQAGGSLRISCAASGRSFYVYAMGWYRQAPGKEREFVARITSNGGSPTYADSVKGRFTISRDKAKNTVYLQMNSLKPEDTAVYYCNADDGIHPNASPSFPQYDYWGPGTQVTVSS”, the “polyreactivity (PSR sort gate)” value is reported as “low polyreactivity”.

“PVQLVESGGGLVQAGGSLRLSCAAAGLTFPPNAMGWYRQAPGKERELVADSGGSTNYADSVKGRFTISRDNAKNTVYLQMNSLNPEDTAVYYCAVPPYSDGQWDDYWGQGTQVTVSS”: the “polyreactivity (PSR sort gate)” value was “low polyreactivity”.

Turning to “PVQLVESGGGLVQAGGSLRLSCAASGFIFRRNAMGWYRQAPGKERELVASIRSGGSTKYADSVKGRFTISRDNAKNTVYLQMTSLKPEDTAVYYCNAEDPGYAVRWYWFKYDYWGQGTQVSVSS”, the “polyreactivity (PSR sort gate)” value is on record as “low polyreactivity”. Take “PVQLVESGGGLVQAGGSLRLSCAASGNAMGWYRQAPGKERELVASINRSGGRTYYADSVKGRFTISRDNAKNTVYLQMNSLKPEDTAVYYCAARPHYDSDYWGQGTQVTVSS”: the “polyreactivity (PSR sort gate)” value is given as “low polyreactivity”. The same measure for “PVQLVESGGGLVQAGGSLRLSCAASGRIFKPYAMGWYRQAPGKERELVAAISGSGTRTYYADSVKGRFTISRANAKNTVYLQMNSLKPEDTAVYFCAAAYYSTYRNRMDYWGQGTQVTVSS”: “high polyreactivity”; for “PVQLVESGGGLVQAGGSLRLSCAASGRILPSNAMGWYRQAPGKERELVAGITSGGSTDYADSVKGRFTISRDNAKNTVYLQMNSLNPVDTAVYYCAARYFHHYWGDLEVEFEYWGQGTQVTVSS”: “low polyreactivity”; for “PVQLVESGGGLVQAGGSLRLSCAASGSIFPSYAMGWYRQAPGKERELVATIGRGGTTNYADSVKGRFTISRDNAKNTVYLQKNSLKPEDTGVYYCNAERIWRYKYGYDYWGQGTQVTVSS”: “high polyreactivity”. The entry for “PVQLVESGGGLVQAGGSLRLSCAASGSIFVTYAMGWYRQAPGKERELVATITYSGGSTSYADSVKGRFTISRDNAKNTVYLQMNSLKPEDTAVYYCAADLDSDFDYWGQGTQVTVSS” is “low polyreactivity”; for “PVQLVESGGGLVQAGGSLRLSCADSGSIFRKYARGWYRQAPGKERELVAAITYGGSSTYYADSVKGRFTISRDNAKKTVYLQRNSLKPQDTAVYYFINDRPSYPAYGHTQYVVQMDYWGQGTQVTVSS” it is “low polyreactivity”. The same measure for “PVQLVESGGGLVQAGGSLRLTCAASGRIFTGYAMGWYRQAPGKERELVAAISRGGSTNYADSVKGRFTISRDNEKNTVYLLMNSLKPEDTAFYYCAAGFDWDRGDYWGQGTQVTVSS”: “low polyreactivity”.

Turning to “PVQLVESGVCLVQAGGSLRLSCATPGSTIDFYAMGWYRQAPGKERELVARISSGGGRTYYADSVKGRFTISRDNAKNTVYLQMISLKPEDTAVYYCAAAYWYLDYYWGQGTQVTVSS”, the “polyreactivity (PSR sort gate)” value is “low polyreactivity”.
